Here are results for six molecules from patent publication US20050074840A1 (published 2005).

In the test the target is T1, human TNF-alpha (hTNF-alpha) (human, UniProt P01375 77-233).
T1 construct: also called biotinylated hTNF-; [125I]TNF-
Briefly: SPR (BIAcore), TNFrED captured on BAF225 anti-TNFrED surface, TNF-alpha injected at 1-100 nM, global 1:1 fit. An excerpt:
Conditioned media from transient transfections of HEK293-EBNA cells were concentrated with Centricon 10s and the amount of TNFrED protein was quantitated with the R & D Systems ELISA for hTNF R-1. […] Conditioned medium (no TNFrED) and HBS were used as negative controls.

B1: TNFrED H34P (receptor)
chain: DSVCPQGKYIHPQNNSICCTKCPKGTYLYNDCPGPGQDTDCRECESGSFTASENHLRHCLSCSKCRKEMGQVEISSCTVDRDTVCGCRKNQYRHYWSENLFQCFNCSLCLNGTVHLSCQEKQNTVCTCHAGFFLRENECVSCSNCKKSLECTKLCLPQIEN
notes: Secreted from HEK293-EBNA cells, conditioned medium
The Kd is a measure of binding affinity in units of concentration. Usually koff stands for the rate constant with which the complex falls apart. A low value points to a long-lived complex. By kon is commonly meant a measure of how fast the partners come together. Low readings indicate slower complex formation, high ones faster complex formation. B1: the affinity, expressed as Kd, was 0.5 nM; the koff is 0.0009 s⁻¹; the on-rate constant (kon) is 1.9e+06 M⁻¹ s⁻¹.

B2: TNFrED S87P (receptor)
chain: DSVCPQGKYIHPQNNSICCTKCHKGTYLYNDCPGPGQDTDCRECESGSFTASENHLRHCLSCSKCRKEMGQVEISPCTVDRDTVCGCRKNQYRHYWSENLFQCFNCSLCLNGTVHLSCQEKQNTVCTCHAGFFLRENECVSCSNCKKSLECTKLCLPQIEN
notes: as for B1
On to B2, for which binding was characterised by a dissociation constant (Kd) of 0.6 nM, the koff worked out at 0.0011 s⁻¹ and the kon came to 2e+06 M⁻¹ s⁻¹.

B3: TNFrED H34P+S87P (receptor)
chain: DSVCPQGKYIHPQNNSICCTKCPKGTYLYNDCPGPGQDTDCRECESGSFTASENHLRHCLSCSKCRKEMGQVEISPCTVDRDTVCGCRKNQYRHYWSENLFQCFNCSLCLNGTVHLSCQEKQNTVCTCHAGFFLRENECVSCSNCKKSLECTKLCLPQIEN
notes: as for B1
Consider B3, for which the affinity, expressed as Kd, was 0.6 nM; the off-rate constant (koff) is 0.0012 s⁻¹; the kon amounted to 1.9e+06 M⁻¹ s⁻¹.

B4: TNFrED H34P+S57I+S87P (receptor)
chain: DSVCPQGKYIHPQNNSICCTKCPKGTYLYNDCPGPGQDTDCRECEIGSFTASENHLRHCLSCSKCRKEMGQVEISPCTVDRDTVCGCRKNQYRHYWSENLFQCFNCSLCLNGTVHLSCQEKQNTVCTCHAGFFLRENECVSCSNCKKSLECTKLCLPQIEN
notes: Secreted from HEK293-EBNA cells, conditioned medium; also called H34P + S87P + S571
Molecule B4 showed a Kd of 0.6 nM, an off-rate constant (koff) of 0.001 s⁻¹ and an association rate constant (kon) of 1.8e+06 M⁻¹ s⁻¹.

B5: TNFrED H34P+S57I (receptor)
chain: DSVCPQGKYIHPQNNSICCTKCPKGTYLYNDCPGPGQDTDCRECEIGSFTASENHLRHCLSCSKCRKEMGQVEISSCTVDRDTVCGCRKNQYRHYWSENLFQCFNCSLCLNGTVHLSCQEKQNTVCTCHAGFFLRENECVSCSNCKKSLECTKLCLPQIEN
notes: Secreted from HEK293-EBNA cells, conditioned medium; also called H34P + S571
In turn, B5 yielded a Kd of 0.6 nM, a koff of 0.0012 s⁻¹ and a kon of 1.9e+06 M⁻¹ s⁻¹.

B6: TNFrED S57I (receptor)
chain: DSVCPQGKYIHPQNNSICCTKCHKGTYLYNDCPGPGQDTDCRECEIGSFTASENHLRHCLSCSKCRKEMGQVEISSCTVDRDTVCGCRKNQYRHYWSENLFQCFNCSLCLNGTVHLSCQEKQNTVCTCHAGFFLRENECVSCSNCKKSLECTKLCLPQIEN
notes: Secreted from HEK293-EBNA cells, conditioned medium; also called S571
In the case of B6, the affinity, expressed as Kd, was 0.5 nM; the koff is 0.0009 s⁻¹; the association rate constant (kon) stood at 1.9e+06 M⁻¹ s⁻¹.
